US20260185102A1, “LIGAND-BINDING NUCLEIC ACID COMPLEX” (RENA THERAPEUTICS INC., priority 2021, published 2026)
Values belong to the molecule of their own block, whether it stands above or below them. In the oligonucleotide strings, read from the 5' end, every base follows the letter of its sugar. An asterisk marks phosphorothioate; unmarked linkages are phosphodiester. Other units and linkages are bracketed, terminal groups are in braces. A string of capitals states the bases alone. Where no end group is shown, it is not given here. [ ]: non-standard residue; d: D form. {L001} = PTH1 ligand L001 attached via a dibenzocyclooctyne-succinyl-hexylamino linker; l = locked nucleic acid (LNA); [5mC] = 5-methylcytosine; Aib = CC(C)(N)C(=O)O; d = 2'-deoxy (DNA); m = 2'-O-methyl; r = 2'-OH (RNA)

Columns and labels:
[1] = Tm of ligand-bound HDO6 duplex; type: physicochemical; conditions: HDO6 with ligand introduced into complementary strand
[2] = Intrarenal distribution, immunostained kidney images after L001-HDO6-Alexa488 (Example 4); type: in vivo, mouse; conditions: 1 μmol/kg, c57BL/6J mice
Description: The fluorescence-labeled ASO comprising Alexa488 bound to the 5′ terminus of the antisense strand (SEQ ID NO: 179) prepared in Example 2 was annealed to the L001 complementary strand (SEQ ID NO: 180) by the method described in Example 2 to form a duplex complex. Thus, the fluorescence-labeled HDO (L001-HDO6-Alexa488) was prepared.
The immunohistochemical test was performed with the use of c57BL/6J mice (12 mice). The fluorescence-labeled HDO (L001-HDO6-Alexa488) was intravenously administered to mice at […] once, a blood sample was taken from the heart under anesthesia with isoflurane 10 minutes, 6 hours, 24 hours, and 72 hours later, the kidney was perfused by left ventricular cannulation with 10 ml of saline followed by 10 ml of 4% paraformaldehyde solution, and the kidney was extracted from the mice. The extracted kidney was soaked in 4% paraformaldehyde to prepare frozen sections. The frozen sections were stained with Nephrin (the primary antibody: mouse Nephrin affinity purified polyclonal antibody, Goat IgG (AF3459), R&D Systems) and Alexa Fluor 594 (the secondary antibody: chicken anti-goat IgG (H+L) (A-21468), Invitrogen) to observe the renal glomerulus, and the frozen sections were stained with a DAPI (4′,6-diamidino-2-phenylindole) solution to observe the DNA-containing cell nuclei. The fluorescent images of the pathological sections were incorporated with the use of the Olympus VS120 Slide Scanning System.
The photograph in the lower right is an image obtained by superposing the aforementioned 3 photographs superposed on top of each other (merged).

mouse Malat1 ncRNA [3] = assay: Malat1 ncRNA expression in mouse kidney after intravenous or subcutaneous PTH1 ligand-HDO (Example 5); type: in vivo; conditions: intravenous, 1 μmol/kg
Description: The nucleic acid complexes used in Example 5 are each a conjugate of 16-mer HDO or ASO targeting mouse Malat1 ncRNA prepared in the example above and the PTH1 ligand. The present inventors adjusted the oligo complex with physiological saline (Otsuka Pharmaceutical Co., Ltd.), the oligo complex for animal evaluation was denatured in a block bath (CDB-105, AS ONE Corporation), and the double-stranded HDO for cell evaluation was subjected to an annealing procedure comprising denaturing at 90° C. for 10 minutes and then naturally cooling to room temperature over a period of about 2 hours in a T100 thermal cycler (Bio-Rad). […]
For mRNA extraction, tissue was fractured by bead crushing using a TissueLyser II (QIAGEN). Total RNA was extracted from the solution containing fractured tissue using the ReliaPrep™ RNA Tissue Miniprep System (Promega Corporation). cDNA was prepared from total RNA by reverse transcription using the PrimeScript™ RT Master Mix (TaKaRa). mRNA expression of each gene was measured using the real-time PCR system (StepOnePlus, Applied Biosystems). […]
All the measured values were indicated in terms of “mean±standard deviation.” Statistical analysis was performed using GraphPad Prism 9.4.0. […]

mouse Malat1 ncRNA [4] = assay: mMalat1 ncRNA expression in mouse liver and kidney after intravenous L001-HDO6 (Example 3); type: in vivo; conditions: c57BL/6J mice, 1 μmol/kg intravenous, Day 3; compared with vehicle and L001 complementary strand groups
Description: The nucleic acid complex used in Example 3 is L001-HDO6, which is a conjugate of 16-mer HDO targeting mouse Malat1 ncRNA prepared in Example 2 and the L001 ligand. The present inventors adjusted the oligo complex to 100 μM with physiological saline (Otsuka Pharmaceutical Co., Ltd.), and double-stranded HDO was subjected to an annealing procedure comprising denaturing at 90° C. for 5 minutes and then naturally cooling to room temperature over a period of about 2 hours in a block bath (CDB-105, AS ONE Corporation).
Species differences in the PTH1 receptor, PTH, and PTHrP are insignificant between humans and mice. […]
Method Mice were divided into groups depending on body weights: the vehicle (saline, Otsuka Pharmaceutical Co., Ltd.) administration group; the L001 complementary strand (1 μmol/kg) administration group; and the L001-HDO6 (1 μmol/kg) administration group (each group consisting of 5 mice (n=5)). […] On the day of autopsy, body weight of each mouse was measured, a blood sample was taken from the heart under anesthesia with isoflurane (introduced at 3% to 5%, maintained at 1% to 3%) (Terumo syringe SS-01P2525, containing the anticoagulant heparin), and mice were euthanized by exsanguination. […]
All the measured values were indicated in terms of “mean±standard deviation.” For statistical analysis, the one-way analysis of variance (ANOVA) was performed using GraphPad Prism 7.04. […]

[5] = target: T1, mouse Pth1R (mPth1R), stably expressed on NIH/3T3 cells (mouse, UniProt P41593 27-591); assay: cell-based or functional assay
T1 sequence (looked up): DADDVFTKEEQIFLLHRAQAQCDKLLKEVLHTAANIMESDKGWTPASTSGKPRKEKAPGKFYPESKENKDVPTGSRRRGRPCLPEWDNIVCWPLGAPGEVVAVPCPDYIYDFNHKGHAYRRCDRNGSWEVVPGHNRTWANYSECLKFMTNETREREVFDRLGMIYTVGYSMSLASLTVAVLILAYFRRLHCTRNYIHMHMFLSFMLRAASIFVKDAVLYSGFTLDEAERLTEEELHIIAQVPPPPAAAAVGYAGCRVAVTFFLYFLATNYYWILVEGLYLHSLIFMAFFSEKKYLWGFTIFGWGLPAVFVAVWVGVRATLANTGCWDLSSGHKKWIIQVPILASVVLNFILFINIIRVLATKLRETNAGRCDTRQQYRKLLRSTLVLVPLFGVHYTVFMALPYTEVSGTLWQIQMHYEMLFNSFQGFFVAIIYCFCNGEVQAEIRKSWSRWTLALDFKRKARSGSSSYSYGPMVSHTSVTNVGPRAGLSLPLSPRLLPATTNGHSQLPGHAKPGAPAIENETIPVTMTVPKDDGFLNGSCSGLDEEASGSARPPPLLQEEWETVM

[6] = 10 minutes after single intravenous administration

Molecule: L001-HDO6: HDO targeting mouse Malat1 ncRNA: antisense strand SEQ ID NO: 179, complementary strand SEQ ID NO: 180 bound to PTH1 ligand L001 (antisense l[5mC]*lT*lA*dG*dT*dT*dC*dA*dC*dT*dG*dA*dA*lT*lG*l[5mC]; sense {L001}-mG*mC*mA*rUrUrCrArGrUrGrArArC*mU*mA*mG)
Tm [1]: 64 °C
fluorescence Alexa-488 in the glomerulus ([2]; 6, 24, or 72 hours after single intravenous administration): no fluorescence was observed
fluorescence Alexa-488 in kidney tubular cells [2, 6]: observed
fluorescence Alexa-488 in the glomerulus [2, 6]: slightly observed
fluorescence Alexa-488 in kidney tubular cells ([2]; 6 hours after single intravenous administration): intensified
fluorescence Alexa-488 in kidney tubular cells ([2]; 24 hours after single intravenous administration): maximum fluorescence was observed
fluorescence Alexa-488 in kidney tubular cells ([2]; 72 hours after single intravenous administration): still observed in many kidney tubules
Malat1 ncRNA expression in the kidney (mouse Malat1 ncRNA [3]; Day 3, compared with the saline administration group): lowered to a statistically significant extent
Malat1 ncRNA expression in the kidney (mouse Malat1 ncRNA [3]; Day 3, in comparison with HDO without ligand): lowered to a statistically significant extent
mMalat1 ncRNA expression level in the kidney (mouse Malat1 ncRNA [4]): lowered in the L001-HDO6 administration group to a significant extent
mMalat1 ncRNA expression level in the liver (mouse Malat1 ncRNA [4]): lowered in the L001-HDO6 administration group to a significant extent

Molecule: AVSEHQLLHDKGKSIQDLRRRELLEKLLAKLHKA (not fully specified (residue 33)) [L001-ASO]
IC50 of lowering Malat1 ncRNA expression level in the mPth1R-stably expressing cell line [5]: 1.25 nM

B2: L010-HDO6 (peptide)
peptide: DKGKSIQDLRRRELLEKLLAKLHKA
modifications: not fully specified (residue 24); printed as DKGKSIQDLRRRELLEKLLAKLH(K-PEG3-Unit)A
IC50 of lowering Malat1 ncRNA expression level in the mPth1R-stably expressing cell line [5]: 167 nM

Molecule: SEHQLLHDKGKSIQDLRRRELLEKLLAKLHKA (not fully specified (residue 31)) [L003-HDO6]
IC50 of lowering Malat1 ncRNA expression level in the mPth1R-stably expressing cell line [5]: 88.9 nM

Continued, values first:

IC50 of lowering Malat1 ncRNA expression level in the mPth1R-stably expressing cell line [5]: 121 nM
B1: L005-HDO6 (peptide)
peptide: HQLLHDKGKSIQDLRRRELLEKLLAKLHKA
modifications: not fully specified (residue 29); printed as HQLLHDKGKSIQDLRRRELLEKLLAKLH(K-PEG3-Unit)A

IC50 of lowering Malat1 ncRNA expression level in the mPth1R-stably expressing cell line [5]: 46.8 nM
Molecule: AVSEHQLLHDKGKSIQDLRRRELLEKLL[Aib]KLHTAK (not fully specified (residue 35); also: prints K at position 33) [L021-HDO6]
